The values below come from publication doi:10.1101/2023.01.24.525215.

Test in all cases: EMSA
One data set deals with T1, WRKY53 (Arabidopsis thaliana, UniProt Q9SUP6 1-324).
T1 sequence: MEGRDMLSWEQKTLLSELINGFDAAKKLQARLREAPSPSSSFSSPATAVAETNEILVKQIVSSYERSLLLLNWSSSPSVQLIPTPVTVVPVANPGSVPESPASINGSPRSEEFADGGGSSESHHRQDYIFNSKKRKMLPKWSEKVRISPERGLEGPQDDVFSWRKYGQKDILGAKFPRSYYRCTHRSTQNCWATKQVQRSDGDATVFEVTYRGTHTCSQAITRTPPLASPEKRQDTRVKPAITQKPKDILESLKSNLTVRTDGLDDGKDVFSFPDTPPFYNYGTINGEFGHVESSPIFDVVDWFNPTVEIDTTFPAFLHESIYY

For another data set, the target named is T2, TGA5 (Arabidopsis thaliana, UniProt Q39163 1-330).
T2 sequence: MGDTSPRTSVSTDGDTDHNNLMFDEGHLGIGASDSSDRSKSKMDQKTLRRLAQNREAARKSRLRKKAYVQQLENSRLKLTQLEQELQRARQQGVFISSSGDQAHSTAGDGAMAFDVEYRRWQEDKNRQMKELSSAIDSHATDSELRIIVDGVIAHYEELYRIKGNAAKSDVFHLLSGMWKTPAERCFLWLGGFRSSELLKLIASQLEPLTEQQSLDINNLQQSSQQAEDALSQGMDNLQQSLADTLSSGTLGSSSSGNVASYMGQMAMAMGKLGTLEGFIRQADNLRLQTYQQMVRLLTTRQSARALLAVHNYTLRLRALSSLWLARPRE

The next data set concerns the target CAM5 (Arabidopsis thaliana, UniProt Q682T9 1-149).

B1: PDF1.2 as-1 probe (dsDNA)
DNA 1: ATGTTGTATTTGTTCGACGATGACGAAGGT
DNA 2: ACCTTCGTCATCGTCGAACAAATACAACAT
On to B1, for which the binding result with WRKY53 is given as “no binding”; with TGA5, “binds”.

B2: PDF1.2 w-box probe (dsDNA)
DNA 1: ATAATTATTCTTGACTGATGTATGCATATA
DNA 2: TATATGCATACATCAGTCAAGAATAATTAT
As for B2, the binding result with WRKY53 is given as “binds”; with CAM5, “no binding”.

B3: PR1 w-box probe (dsDNA)
DNA 1: TTTATTTGAAAATTGACTGTAGATATAAAC
DNA 2: GTTTATATCTACAGTCAATTTTCAAATAAA
With B3, the binding result was “binds” with WRKY53, “binds” with TGA5 and “no binding” in the data set with CAM5.
